Target: wild type sortilin expressed in COS-7 cells (UniProt Q99523 78-831)
Sequence (Q99523 78-831): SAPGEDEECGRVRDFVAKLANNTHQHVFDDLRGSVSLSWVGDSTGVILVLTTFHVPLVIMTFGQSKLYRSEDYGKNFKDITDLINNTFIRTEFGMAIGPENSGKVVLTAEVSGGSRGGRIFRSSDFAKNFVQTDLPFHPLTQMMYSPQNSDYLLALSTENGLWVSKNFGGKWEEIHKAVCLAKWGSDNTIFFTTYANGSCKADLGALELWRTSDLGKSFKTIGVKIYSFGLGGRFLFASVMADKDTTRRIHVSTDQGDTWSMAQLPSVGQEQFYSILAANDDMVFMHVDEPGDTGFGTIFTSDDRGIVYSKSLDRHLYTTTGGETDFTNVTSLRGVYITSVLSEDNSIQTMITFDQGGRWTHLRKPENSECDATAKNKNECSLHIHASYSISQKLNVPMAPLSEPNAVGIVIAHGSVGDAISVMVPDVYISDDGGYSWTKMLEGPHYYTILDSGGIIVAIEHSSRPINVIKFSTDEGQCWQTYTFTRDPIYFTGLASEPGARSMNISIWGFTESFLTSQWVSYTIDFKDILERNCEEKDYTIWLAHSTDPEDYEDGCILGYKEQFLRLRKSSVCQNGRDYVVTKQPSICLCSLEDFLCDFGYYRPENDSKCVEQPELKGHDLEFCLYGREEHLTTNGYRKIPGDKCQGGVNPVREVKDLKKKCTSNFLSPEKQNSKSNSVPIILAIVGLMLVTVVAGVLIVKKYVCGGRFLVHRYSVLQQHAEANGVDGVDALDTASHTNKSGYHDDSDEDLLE

Kd: 3 nM
B1: alkaline phosphatase tagged progranulin C100 (granulin E and its flanking region, aa 494-593) (domain or fragment)
chain: SCEKEVVSAQPATFLARSPHVGVKDVECGEGHFCHDNQTCCRDNRQGWACCPYRQGVCCADRRHCCPAGFRCAARGTKCLRREAPRWDAPLRDPALRQLL

Source: publication PMC3115958 (2011)
